Data as given in patent US20200085871A1.
“And” between values parts separate entries of the source, which are not always exact repeats. Equal values may be shown once.

Target: mouse CD19 on B cells (mouse) (UniProt P25918)
Experiment: cell-based or functional assay

UniProt P25918, sequence (P25918 19-547): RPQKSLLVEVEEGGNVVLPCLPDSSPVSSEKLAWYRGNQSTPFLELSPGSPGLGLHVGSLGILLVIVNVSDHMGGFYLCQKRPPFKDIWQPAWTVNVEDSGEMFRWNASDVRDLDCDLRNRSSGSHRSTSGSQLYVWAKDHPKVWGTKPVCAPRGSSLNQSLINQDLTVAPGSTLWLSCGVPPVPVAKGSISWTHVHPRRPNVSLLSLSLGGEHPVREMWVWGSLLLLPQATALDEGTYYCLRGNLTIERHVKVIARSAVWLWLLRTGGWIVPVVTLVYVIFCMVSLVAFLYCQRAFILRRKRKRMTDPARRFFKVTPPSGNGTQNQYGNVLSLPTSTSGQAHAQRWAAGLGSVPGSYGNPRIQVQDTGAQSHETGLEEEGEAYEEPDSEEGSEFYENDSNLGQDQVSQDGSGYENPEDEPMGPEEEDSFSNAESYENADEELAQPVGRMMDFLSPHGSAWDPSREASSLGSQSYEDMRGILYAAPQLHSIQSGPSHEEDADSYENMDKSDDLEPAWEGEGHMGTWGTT

Q: For “anti-CD19-28Z.1-3 CAR (1D3 anti-mouse CD19 chimeric antigen receptor), expressed on transduced mouse CD8+ cytotoxic T cells (from UniProt P31041 115-218; P24161 52-164)”, which percent CD19+ B cells remaining in CAR T-treated MRL/lpr mice (flow cytometry) is on record?
A: Its percent CD19+ B cells remaining in CAR T-treated MRL/lpr mice (flow cytometry) is 0.05% and 0.14%.
